Test results as given in PMC7145654.
Read-outs that look alike come from different tables or passages of the source.

Tests used:
RadD [1] = biological target: T1, RadD (Escherichia coli, UniProt P33919 1-586); assay: fluorescence anisotropy
T1 sequence: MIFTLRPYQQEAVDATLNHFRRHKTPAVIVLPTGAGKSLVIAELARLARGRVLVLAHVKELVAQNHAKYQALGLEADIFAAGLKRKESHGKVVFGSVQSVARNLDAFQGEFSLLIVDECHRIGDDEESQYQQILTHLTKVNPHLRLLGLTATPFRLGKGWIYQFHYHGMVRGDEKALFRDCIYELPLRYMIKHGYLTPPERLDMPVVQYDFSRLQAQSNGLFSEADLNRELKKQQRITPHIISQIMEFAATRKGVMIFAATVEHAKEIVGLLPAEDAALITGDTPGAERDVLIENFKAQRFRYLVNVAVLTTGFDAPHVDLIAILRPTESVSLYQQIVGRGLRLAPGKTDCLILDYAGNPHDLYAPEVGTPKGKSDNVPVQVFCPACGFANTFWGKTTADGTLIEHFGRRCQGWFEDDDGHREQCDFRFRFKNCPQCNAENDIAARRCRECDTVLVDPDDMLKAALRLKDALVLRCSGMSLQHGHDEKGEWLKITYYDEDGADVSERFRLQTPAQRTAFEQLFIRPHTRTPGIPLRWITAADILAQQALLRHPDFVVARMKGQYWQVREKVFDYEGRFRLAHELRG

RadD [2] = biological target: T1, RadD; assay: fluorescence anisotropy; remark: listed apart in the source
Uup [3] = biological target: T2, Uup (Escherichia coli, UniProt P43672 1-635); assay: EMSA
T2 sequence (P43672 whole entry): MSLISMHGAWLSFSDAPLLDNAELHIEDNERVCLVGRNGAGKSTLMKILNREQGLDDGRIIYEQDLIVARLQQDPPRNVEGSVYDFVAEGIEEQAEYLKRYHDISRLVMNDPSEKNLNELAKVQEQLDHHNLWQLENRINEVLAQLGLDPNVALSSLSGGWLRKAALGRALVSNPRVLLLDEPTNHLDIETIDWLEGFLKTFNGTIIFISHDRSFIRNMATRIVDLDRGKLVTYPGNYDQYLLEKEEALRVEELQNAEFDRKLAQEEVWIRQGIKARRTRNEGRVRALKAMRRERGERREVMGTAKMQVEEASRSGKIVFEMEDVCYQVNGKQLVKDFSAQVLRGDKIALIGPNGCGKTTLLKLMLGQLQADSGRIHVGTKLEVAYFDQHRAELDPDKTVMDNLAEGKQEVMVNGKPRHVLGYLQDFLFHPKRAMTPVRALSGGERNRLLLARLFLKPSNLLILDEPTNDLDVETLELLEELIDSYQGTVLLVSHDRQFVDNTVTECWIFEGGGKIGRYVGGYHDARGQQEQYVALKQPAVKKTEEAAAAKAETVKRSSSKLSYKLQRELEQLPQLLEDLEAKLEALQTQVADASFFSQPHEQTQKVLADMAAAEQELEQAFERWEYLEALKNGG

Uup [4] = biological target: T2, Uup; assay: EMSA; remark: listed apart in the source

B1: three-way junction (OH1/OH4/3W) (structured_DNA)
DNA 1: CCCGTGATCACCAATGCAGATTGACGAACCTTTGCCCACGT
DNA 2: GGCAGTAGGCCTAGCATGACAATCTGCATTGGTGATCACGG
DNA 3: GACGTGGGCAAAGGTTCGTCGTCATGCTAGGCCTACTGC
RadD [1]
  binding result: binds

B2: Holliday junction (OH1-OH4) (structured_DNA)
DNA 1: B1 DNA 1
DNA 2: GACGTGGGCAAAGGTTCGTCAATGGACTGACAGCTGCATGG
DNA 3: GCCATCCAGCTGTCAGTCCATTGTCATGCTAGGCCTACTGC
DNA 4: B1 DNA 2
RadD [2]
  binding result: no binding
Uup [3]
  binding result: binds

B3: linear duplex (ZJRds1/ZJRds2) (dsDNA)
DNA 1: GCAATTAAGCTCTAAGCCATCCGCAAAAATGACCTCTTATCAAAAGGA
DNA 2: TCCTTTTGATAAGAGGTCATTTTTGCGGATGGCTAAGAGCTTAATTGC
RadD [2]
  binding result: no binding
Uup [4]
  binding result: no binding
